# Laboratory results reported in patent US20240317834A1, “COMPOSITIONS AND METHODS FOR NEUROLOGICAL DISEASES” (CODA BIOTHERAPEUTICS, INC., priority 2020, published 2024).
# Experiments:
# Lenti-X 293T cells = assay: YFP fluorescence quenching anion reporter plate reader assay of engineered receptors stimulated with acetylcholine or a non-native ligand; assay type: cell-based
# Method in brief: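 Lenti-X 293T cells carrying a YFP anion reporter were transiently transfected with channel DNA and assayed the next day in HEPES-buffered ECS at pH 7.2. Ligand (acetylcholine or non-native ligand) was added in NaI-substituted ECS. Percent quench was the mean of the last 10 s relative to the 15 s pre-addition baseline.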
# rat DRG neurons = assay: Rheobase shift and evoked action potentials in rat DRG neurons (current clamp); assay type: cell-based
# Method in brief: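 Rat DRG neurons expressing engineered receptors, whole-cell current clamp at RT. ECS at pH 7.3; K-gluconate internal at pH 7.2. 500 ms steps from −200 to 700 pA with and without ligand. Rheobase taken as the smallest depolarising step that fires an action potential; input resistance from negative steps.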
molecule,measurement,setting,value
"CODA1056: engineered chimeric LGIC receptor, R101F, Y115E, Y210W in SEQ ID NO: 33 (protein, synthetic sequence of chimeric LGIC) MRCSPGGVWLALAASLLHVSLQGEFQRKLYKELVKNYNPLERPVANDSQPLTVYFSLSLLQIMDVDEKNQVLTTNIWLQMSWTDHYLQWNVSEYPGVKTVFFPDGQIWKPDILLENSADERFDATFHTNVLVNSSGHCQYLPPGIFKSSCPMDLKNFPMDVQTCKLKFGSWSYGGWSLDLQMQEADISGYIPNGEWDLVGIPGKRSERFWECCKEPYPDVTFTVTMRRRMGYYLIQMYIPSLLIVILSWISFWINMDAAPARVGLGITTVLTMTTQSSGSRASLPKVSYVKAIDIWMAVCLLFVFSALLEYAAVNFVSRQHKELLRFRRKRRHHKSPMLNLFQEDEAGEGRFNFSAYGMGPACLQAKDGISVKGANNSNTTNPPPAPSKSPEEMRKLFIQRAKKIDKISRIGFPMAFLIFNMFYWIIYKIVRREDVHNQ",YFP fluorescence quenching using CNL001,"Lenti-X 293T cells; 1 nM CNL001, first column",−8.104%
same,YFP fluorescence quenching using CNL001,"Lenti-X 293T cells; 1 nM CNL001, second column",−12.153%
same,YFP fluorescence quenching using TC-5619/Bradanicline,Lenti-X 293T cells; 1 nM brd,−7.894%
same,YFP fluorescence quenching using TC-5619/Bradanicline,Lenti-X 293T cells; 3 nM brd,−11.812%
same,YFP fluorescence quenching using CNL001,"Lenti-X 293T cells; 10 nM CNL001, first column",−10.462%
same,YFP fluorescence quenching using CNL001,"Lenti-X 293T cells; 10 nM CNL001, second column",−4.735%
same,YFP fluorescence quenching using TC-5619/Bradanicline,Lenti-X 293T cells; 10 nM brd,36.211%
same,YFP fluorescence quenching using TC-5619/Bradanicline,Lenti-X 293T cells; 30 nM brd,40.624%
same,YFP fluorescence quenching using CNL001,"Lenti-X 293T cells; 50 nM CNL001, first column",−8.617%
same,YFP fluorescence quenching using CNL001,"Lenti-X 293T cells; 50 nM CNL001, second column",−1.606%
same,YFP fluorescence quenching using ABT-126,Lenti-X 293T cells; 50 nM abt,−20.96%
same,YFP fluorescence quenching using CNL001,"Lenti-X 293T cells; 100 nM CNL001, first column",−1.243%
same,YFP fluorescence quenching using CNL001,"Lenti-X 293T cells; 100 nM CNL001, second column",1.838%
same,YFP fluorescence quenching using ABT-126,Lenti-X 293T cells; 100 nM abt,−21.95%
same,YFP fluorescence quenching using TC-5619/Bradanicline,Lenti-X 293T cells; 100 nM brd,65.869%
same,YFP fluorescence quenching using ABT-126,Lenti-X 293T cells; 300 nM abt,−10.96%
same,YFP fluorescence quenching using TC-5619/Bradanicline,Lenti-X 293T cells; 300 nM brd,59.661%
same,YFP fluorescence quenching using CNL001,"Lenti-X 293T cells; 1 uM CNL001, first column",−0.567%
same,YFP fluorescence quenching using CNL001,"Lenti-X 293T cells; 1 uM CNL001, second column",4.663%
same,YFP fluorescence quenching using ABT-126,Lenti-X 293T cells; 1 uM abt,10.79%
same,"percent quench of YFP fluorescence, 30 nM TC-6683",Lenti-X 293T cells; TC-6683 30 nM,−19.889%
same,"percent quench of YFP fluorescence, 300 nM TC-6683",Lenti-X 293T cells; TC-6683 300 nM,−22.443%
same,"percent quench of YFP fluorescence, 3 uM TC-6683",Lenti-X 293T cells; TC-6683 3 uM,−12.623%
same,"percent quench of YFP fluorescence, 30 uM TC-6683",Lenti-X 293T cells; TC-6683 30 uM,−10.728%
same,"percent quench of YFP fluorescence, 100 uM TC-6683",Lenti-X 293T cells; TC-6683 100 uM,−10.959%
same,"percent quench of YFP fluorescence, 100 uM ach",Lenti-X 293T cells; acetylcholine 100 uM,−20.55%
same,"percent quench of YFP fluorescence, 300 uM ach",Lenti-X 293T cells; acetylcholine 300 uM,−19.32%
same,"percent quench of YFP fluorescence, 500 uM ach",Lenti-X 293T cells; acetylcholine 500 uM,−19.75%
same,"percent quench of YFP fluorescence, 1 mM ach",Lenti-X 293T cells; acetylcholine 1 mM,−14.08%
same,"percent quench of YFP fluorescence, 3 mM ach",Lenti-X 293T cells; acetylcholine 3 mM,14.07%
same,"percent quench of YFP fluorescence, 10 mM ach",Lenti-X 293T cells; acetylcholine 10 mM,25.7%
same,"Rheobase Shift; Rat DRG Neurons, +TC-5619 @ EC90",rat DRG neurons; +TC-5619 @ EC90,632 ± 43 pA
same,"Rheobase Shift; Rat DRG Neurons, Baseline","rat DRG neurons; Baseline, no ligand",114 ± 12 pA
